# Data: patent US20260167699A1 (Chugai, published 2026)
# T1: FcγRIIa(R) extracellular domain with C-terminal His tag (human, UniProt P12318 34-217)
# T1 construct: extracellular domain; R131 allotype; also called 2aR; CD32
# T1 sequence: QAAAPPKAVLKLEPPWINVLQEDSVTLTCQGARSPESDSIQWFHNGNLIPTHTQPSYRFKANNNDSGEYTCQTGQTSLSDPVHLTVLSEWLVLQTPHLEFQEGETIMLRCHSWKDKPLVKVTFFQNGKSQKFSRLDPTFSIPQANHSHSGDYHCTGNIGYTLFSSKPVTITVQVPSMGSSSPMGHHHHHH
# T2: FcγRIIa(H) extracellular domain with C-terminal His tag (human, UniProt P12318 34-217)
# T2 construct: extracellular domain; H131 allotype; also called 2aH; CD32
# T2 sequence: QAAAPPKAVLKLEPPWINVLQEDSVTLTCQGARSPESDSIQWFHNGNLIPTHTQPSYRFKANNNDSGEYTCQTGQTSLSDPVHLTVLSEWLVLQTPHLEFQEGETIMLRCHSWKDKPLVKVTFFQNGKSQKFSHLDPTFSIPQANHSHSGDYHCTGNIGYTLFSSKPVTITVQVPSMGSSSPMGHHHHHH
# T3: FcγRIIb extracellular domain with C-terminal His tag (human, UniProt P31994 43-217)
# T3 construct: extracellular domain; also called 2b; CD32
# T3 sequence: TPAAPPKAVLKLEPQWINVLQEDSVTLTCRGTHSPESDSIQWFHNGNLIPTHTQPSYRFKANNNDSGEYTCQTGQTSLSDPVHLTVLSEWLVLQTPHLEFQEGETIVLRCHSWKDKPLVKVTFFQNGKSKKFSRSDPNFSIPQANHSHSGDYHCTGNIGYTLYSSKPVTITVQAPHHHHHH
# T4: FcγRIIa(R) (human, UniProt P12318 34-217)
# T4 construct: extracellular domain; also called FcγRIIa R type; 2aR
# T4 sequence: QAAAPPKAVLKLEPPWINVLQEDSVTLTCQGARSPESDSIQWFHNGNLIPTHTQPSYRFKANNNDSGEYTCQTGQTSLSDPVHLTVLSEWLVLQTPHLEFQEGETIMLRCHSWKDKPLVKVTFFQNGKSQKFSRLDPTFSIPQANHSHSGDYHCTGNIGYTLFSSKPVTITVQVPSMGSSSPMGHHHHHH
# T5: FcγRIIa(H) (human, UniProt P12318 34-217)
# T5 construct: extracellular domain; also called FcγRIIa H type; 2aH
# T5 sequence: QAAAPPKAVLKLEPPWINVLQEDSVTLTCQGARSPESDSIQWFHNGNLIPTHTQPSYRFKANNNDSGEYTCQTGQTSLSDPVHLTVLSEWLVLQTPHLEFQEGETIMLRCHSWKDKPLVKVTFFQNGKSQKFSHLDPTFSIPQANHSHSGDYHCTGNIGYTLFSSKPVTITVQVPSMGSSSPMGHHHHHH
# T6: FcγRIIb (human, UniProt P31994 43-217)
# T6 construct: extracellular domain; also called 2b
# T6 sequence: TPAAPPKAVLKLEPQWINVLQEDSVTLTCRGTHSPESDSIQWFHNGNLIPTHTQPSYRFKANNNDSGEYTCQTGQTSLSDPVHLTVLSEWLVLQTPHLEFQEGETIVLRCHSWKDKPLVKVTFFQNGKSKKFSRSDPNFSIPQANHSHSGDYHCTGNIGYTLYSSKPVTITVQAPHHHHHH
# How the values were obtained:
# [1] = target: T7, FcγRIa extracellular domain with C-terminal His tag (human, UniProt P12314 16-292); assay: SPR; % of GpH7-A5/GpH7-B3/GpL16-k0
# T7 construct: extracellular domain; also called 1a; CD64
# T7 sequence (P12314 other isoform, or with tags, fused parts or gaps): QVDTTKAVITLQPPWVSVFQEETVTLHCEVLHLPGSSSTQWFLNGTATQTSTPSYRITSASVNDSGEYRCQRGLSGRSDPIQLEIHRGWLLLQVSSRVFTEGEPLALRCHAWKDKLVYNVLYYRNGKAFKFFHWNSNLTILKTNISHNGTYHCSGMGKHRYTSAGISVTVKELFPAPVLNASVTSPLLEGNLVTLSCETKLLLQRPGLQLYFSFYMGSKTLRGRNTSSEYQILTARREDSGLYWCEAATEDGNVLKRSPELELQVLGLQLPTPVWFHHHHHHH
# [2] = target: T1, FcγRIIa(R) extracellular domain with …; assay: SPR; % of GpH7-A5/GpH7-B3/GpL16-k0
# [3] = target: T2, FcγRIIa(H) extracellular domain with …; assay: SPR; % of GpH7-A5/GpH7-B3/GpL16-k0
# [4] = target: T3, FcγRIIb extracellular domain with …; assay: SPR; % of GpH7-A5/GpH7-B3/GpL16-k0
# [5] = target: T8, FcγRIIIa extracellular domain with C-terminal His tag (human, UniProt P08637 17-208); assay: SPR; % of GpH7-A5/GpH7-B3/GpL16-k0
# T8 construct: extracellular domain; also called 3a; CD16
# T8 sequence (P08637 other isoform, or with tags, fused parts or gaps): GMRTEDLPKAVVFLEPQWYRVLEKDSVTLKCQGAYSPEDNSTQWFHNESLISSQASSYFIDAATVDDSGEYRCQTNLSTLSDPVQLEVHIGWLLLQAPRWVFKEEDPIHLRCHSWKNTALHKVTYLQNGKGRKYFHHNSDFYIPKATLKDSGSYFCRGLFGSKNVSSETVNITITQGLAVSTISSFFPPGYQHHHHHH
# FcγRIa = target: T9, FcγRIa (human, UniProt P12314 16-292); assay: SPR (Biacore), binding relative to GpH7-A5/GpH7-B3/GpL16-k0 x100;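 also: surface plasmon resonance at 25 °C, antibody captured on a sensor chip and soluble FcγR flowed over it in HBS-EP+ running buffer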
# T9 construct: extracellular domain; also called 1a
# T9 sequence (P12314 other isoform, or with tags, fused parts or gaps): as the sequence (P12314 other isoform, or with tags, fused parts or gaps) above
# FcγRIIa(R) = target: T4, FcγRIIa(R); assay: as above
# FcγRIIa(H) = target: T5, FcγRIIa(H); assay: as above
# FcγRIIb = target: T6, FcγRIIb; assay: as above
He/Con 1a [1] [%],He/Con 2aR [2] [%],He/Con 2aH [3] [%],He/Con 2b [4] [%],He/Con 3a [5] [%],He/Con 1a (FcγRIa) [%],He/Con 2aR (FcγRIIa(R)) [%],He/Con 2aH (FcγRIIa(H)) [%],He/Con 2b (FcγRIIb) [%],Binder
111,116,111,118,103,,,,,"GpH7-A5/GpH7-B3 variant T335_09D/GpL16-k0 (antibody, human IgG1, kappa, heterodimerized IgG1 (He Ab), mutation in one H chain only; also called He Ab) heavy 1: not shown heavy 2: not shown light: DIVMTQSPLSLPVTPGEPASISCQASESLVHSNRNTYLHWYLQKPGQSPQLLIYKVSNRFSGVPDRFSGSGSGTDFTLKISRVEAEDVGVYYCSQNTHVPPTFGQGTKVEIERTVAAPSVFIFPPSDEQLKSGTASVVCLLNNFYPREAKVQWKVDNALQSGNSQESVTEQDSKDSTYSLSSTLTLSKADYEKHKVYACEVTHQGLSSPVTKSFNRGEC"
,,,,,106,114,82.7,122,"GpH7-A5/GpH7-B3 variant H268_05P/GpL16-k0 (antibody, human IgG1, kappa, heterodimerized IgG1, one H chain mutated; also called He Ab) heavy 1: not shown heavy 2: not shown light: DIVMTQSPLSLPVTPGEPASISCQASESLVHSNRNTYLHWYLQKPGQSPQLLIYKVSNRFSGVPDRFSGSGSGTDFTLKISRVEAEDVGVYYCSQNTHVPPTFGQGTKVEIERTVAAPSVFIFPPSDEQLKSGTASVVCLLNNFYPREAKVQWKVDNALQSGNSQESVTEQDSKDSTYSLSSTLTLSKADYEKHKVYACEVTHQGLSSPVTKSFNRGEC"
111,117,110,118,99.7,,,,,"GpH7-A5/GpH7-B3 variant T335_15Y/GpL16-k0 (antibody, human IgG1, kappa, heterodimerized IgG1 (He Ab), mutation in one H chain only; also called He Ab) heavy 1: not shown heavy 2: not shown light: DIVMTQSPLSLPVTPGEPASISCQASESLVHSNRNTYLHWYLQKPGQSPQLLIYKVSNRFSGVPDRFSGSGSGTDFTLKISRVEAEDVGVYYCSQNTHVPPTFGQGTKVEIERTVAAPSVFIFPPSDEQLKSGTASVVCLLNNFYPREAKVQWKVDNALQSGNSQESVTEQDSKDSTYSLSSTLTLSKADYEKHKVYACEVTHQGLSSPVTKSFNRGEC"
112,117,112,118,102,,,,,"GpH7-A5/GpH7-B3 variant T335_10E/GpL16-k0 (antibody, human IgG1, kappa, heterodimerized IgG1 (He Ab), mutation in one H chain only; also called He Ab) heavy 1: not shown heavy 2: not shown light: DIVMTQSPLSLPVTPGEPASISCQASESLVHSNRNTYLHWYLQKPGQSPQLLIYKVSNRFSGVPDRFSGSGSGTDFTLKISRVEAEDVGVYYCSQNTHVPPTFGQGTKVEIERTVAAPSVFIFPPSDEQLKSGTASVVCLLNNFYPREAKVQWKVDNALQSGNSQESVTEQDSKDSTYSLSSTLTLSKADYEKHKVYACEVTHQGLSSPVTKSFNRGEC"
110,115,109,114,97.3,,,,,"GpH7-A5/GpH7-B3 variant T335_20W/GpL16-k0 (antibody, human IgG1, kappa, heterodimerized IgG1 (He Ab), mutation in one H chain only; also called He Ab) heavy 1: not shown heavy 2: not shown light: DIVMTQSPLSLPVTPGEPASISCQASESLVHSNRNTYLHWYLQKPGQSPQLLIYKVSNRFSGVPDRFSGSGSGTDFTLKISRVEAEDVGVYYCSQNTHVPPTFGQGTKVEIERTVAAPSVFIFPPSDEQLKSGTASVVCLLNNFYPREAKVQWKVDNALQSGNSQESVTEQDSKDSTYSLSSTLTLSKADYEKHKVYACEVTHQGLSSPVTKSFNRGEC"
116,106,103,100,93.1,,,,,"GpH7-A5/GpH7-B3 variant T335_12R/GpL16-k0 (antibody, human IgG1, kappa, heterodimerized IgG1 (He Ab), mutation in one H chain only; also called He Ab) heavy 1: not shown heavy 2: not shown light: DIVMTQSPLSLPVTPGEPASISCQASESLVHSNRNTYLHWYLQKPGQSPQLLIYKVSNRFSGVPDRFSGSGSGTDFTLKISRVEAEDVGVYYCSQNTHVPPTFGQGTKVEIERTVAAPSVFIFPPSDEQLKSGTASVVCLLNNFYPREAKVQWKVDNALQSGNSQESVTEQDSKDSTYSLSSTLTLSKADYEKHKVYACEVTHQGLSSPVTKSFNRGEC"
108,112,107,109,97.7,,,,,"GpH7-A5/GpH7-B3 variant T335_19Q/GpL16-k0 (antibody, human IgG1, kappa, heterodimerized IgG1 (He Ab), mutation in one H chain only; also called He Ab) heavy 1: not shown heavy 2: not shown light: DIVMTQSPLSLPVTPGEPASISCQASESLVHSNRNTYLHWYLQKPGQSPQLLIYKVSNRFSGVPDRFSGSGSGTDFTLKISRVEAEDVGVYYCSQNTHVPPTFGQGTKVEIERTVAAPSVFIFPPSDEQLKSGTASVVCLLNNFYPREAKVQWKVDNALQSGNSQESVTEQDSKDSTYSLSSTLTLSKADYEKHKVYACEVTHQGLSSPVTKSFNRGEC"
